Reference: patent publication US20160347802A1 (MAX PLANCK GESELLSCHAFT ZUR FOERDERUNG DER WISSENSCHAFTEN E …, published 2016)
One block for each binder: values may come before it.

Experiments:
[1] = target: the molecule itself; assay: AVEXIS, pentameric prey zebrafish DraxinB on bait zDraxinB
[2] = target: T1, human DRAXIN, AVEXIS prey or bait protein (human, UniProt Q8NBI3 26-349); assay: AVEXIS, pentameric prey zebrafish DraxinB on bait hDRAXIN
T1 construct: It was tested in both bait and prey orientations
T1 sequence: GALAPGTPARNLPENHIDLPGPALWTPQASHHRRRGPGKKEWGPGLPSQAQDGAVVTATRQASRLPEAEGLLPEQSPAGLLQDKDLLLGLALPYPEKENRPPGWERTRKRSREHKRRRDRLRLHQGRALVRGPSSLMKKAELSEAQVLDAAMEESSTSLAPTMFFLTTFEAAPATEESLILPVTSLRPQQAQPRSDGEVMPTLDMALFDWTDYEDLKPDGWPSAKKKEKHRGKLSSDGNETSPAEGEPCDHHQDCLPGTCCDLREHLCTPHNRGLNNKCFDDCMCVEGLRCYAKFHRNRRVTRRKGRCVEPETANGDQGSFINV

[3] = target: T2, zebrafish DraxinA, AVEXIS prey or bait protein (zebrafish, UniProt Q4V9H3 24-360); assay: AVEXIS, prey on bait zDraxinA, upper value; white = No binding
T2 construct: Prey and bait forms of the same protein are kept as one molecule; Preys are pentameric except in the monomeric-prey experiments; also called DraxinA prey protein
T2 chain: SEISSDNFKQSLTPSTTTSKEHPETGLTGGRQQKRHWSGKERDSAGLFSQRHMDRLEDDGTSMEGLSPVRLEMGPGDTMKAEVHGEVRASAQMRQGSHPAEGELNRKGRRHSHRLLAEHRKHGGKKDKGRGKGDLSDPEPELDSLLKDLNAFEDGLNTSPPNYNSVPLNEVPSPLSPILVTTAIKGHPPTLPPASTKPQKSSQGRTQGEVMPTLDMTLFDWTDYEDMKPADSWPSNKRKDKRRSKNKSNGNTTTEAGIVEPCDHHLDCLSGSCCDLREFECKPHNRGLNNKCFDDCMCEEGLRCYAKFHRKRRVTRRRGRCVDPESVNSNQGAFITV

[4] = target: T2, zebrafish DraxinA, AVEXIS prey or bait …; assay: AVEXIS, prey on bait zDraxinA, lower value; white = No binding
[5] = target: the molecule itself; assay: AVEXIS, prey on bait zDraxinB, lower value; white = No binding
[6] = target: T2, zebrafish DraxinA, AVEXIS prey or bait …; assay: AVEXIS, pentameric prey zebrafish DraxinB on bait zDraxinA
[7] = target: the molecule itself; assay: AVEXIS, prey on bait zDraxinB, upper value; white = No binding
[8] = target: T3, zebrafish Netrin1a, AVEXIS bait or prey protein (zebrafish); assay: AVEXIS competition: Netrin1a bait preincubated with monomeric DCC prey, Draxin added 30 min after the prey
T3 construct: Prey and bait forms are kept as one molecule; also called Ntn1a; Netrin1a bait

[9] = target: T3, zebrafish Netrin1a, AVEXIS bait or prey …; assay: AVEXIS competition: Netrin1a bait, Unc5b prey, purified Draxin as inhibitor
[10] = target: T3, zebrafish Netrin1a, AVEXIS bait or prey …; assay: AVEXIS competition: Netrin1a bait, DCC prey, purified Draxin as inhibitor
[11] = target: T3, zebrafish Netrin1a, AVEXIS bait or prey …; assay: AVEXIS competition: Netrin1a bait, monomeric DCC prey, Draxin added 30 min before the prey
[12] = target: T3, zebrafish Netrin1a, AVEXIS bait or prey …; assay: AVEXIS competition: Netrin1a bait, monomeric DCC prey, Draxin added together with the prey
[13] = target: the molecule itself; assay: AVEXIS, prey NTN3 on bait NTN3
Excerpt: (§1) The Matn4-bait served as an internal prey-protein control and was used for normalization of the A486 nm values; conditioned medium (CM) serves as negative control; n=3.

[14] = target: T4, human Netrin-4, AVEXIS protein (human, UniProt Q9HB63 19-628); assay: AVEXIS, prey NTN3 on bait NTN4
T4 construct: not shown: AVEXIS tag (bait or prey)
T4 sequence (looked up): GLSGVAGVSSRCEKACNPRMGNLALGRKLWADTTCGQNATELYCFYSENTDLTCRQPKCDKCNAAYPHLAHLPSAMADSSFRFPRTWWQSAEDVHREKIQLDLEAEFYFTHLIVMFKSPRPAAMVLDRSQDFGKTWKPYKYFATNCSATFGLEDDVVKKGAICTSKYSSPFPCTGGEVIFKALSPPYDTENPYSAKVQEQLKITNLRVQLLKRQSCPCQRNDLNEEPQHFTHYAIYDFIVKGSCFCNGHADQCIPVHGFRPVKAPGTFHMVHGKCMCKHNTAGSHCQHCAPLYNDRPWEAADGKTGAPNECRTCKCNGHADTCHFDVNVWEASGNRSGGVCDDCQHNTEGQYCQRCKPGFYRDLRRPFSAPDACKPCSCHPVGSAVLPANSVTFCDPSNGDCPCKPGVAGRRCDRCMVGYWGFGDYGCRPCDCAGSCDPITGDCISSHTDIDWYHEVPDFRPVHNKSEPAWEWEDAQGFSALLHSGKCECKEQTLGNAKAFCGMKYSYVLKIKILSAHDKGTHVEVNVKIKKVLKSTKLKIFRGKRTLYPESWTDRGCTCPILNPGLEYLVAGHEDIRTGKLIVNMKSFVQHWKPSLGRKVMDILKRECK
Excerpt: as §1

[15] = target: T5, human Netrin1, recombinant AVEXIS protein (biotinylated when immobilised) (human, UniProt O95631 25-604); assay: AVEXIS, prey on bait NTN1; white = No binding
T5 construct: also called NTN1
Excerpt: as §1

[16] = target: T6, human Netrin-G2, AVEXIS protein (human, UniProt Q96CW9 18-507); assay: AVEXIS, prey on bait NTNG2; white = No binding
T6 construct: not shown: AVEXIS tag (bait or prey)
T6 sequence (looked up): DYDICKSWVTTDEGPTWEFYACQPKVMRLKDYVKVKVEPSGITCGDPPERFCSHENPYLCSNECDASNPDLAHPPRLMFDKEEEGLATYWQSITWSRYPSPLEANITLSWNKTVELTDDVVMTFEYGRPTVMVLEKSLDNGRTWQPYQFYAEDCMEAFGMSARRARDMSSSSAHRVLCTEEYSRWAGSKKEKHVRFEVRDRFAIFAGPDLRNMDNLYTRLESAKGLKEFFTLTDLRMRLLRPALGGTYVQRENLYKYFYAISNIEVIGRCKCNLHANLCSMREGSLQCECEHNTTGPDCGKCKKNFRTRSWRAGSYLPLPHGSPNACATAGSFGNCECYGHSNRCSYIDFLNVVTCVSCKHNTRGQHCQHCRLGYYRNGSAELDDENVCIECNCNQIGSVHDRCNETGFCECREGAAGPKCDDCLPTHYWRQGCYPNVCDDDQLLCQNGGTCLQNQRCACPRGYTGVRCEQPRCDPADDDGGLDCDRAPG
Excerpt: as §1

[17] = target: T5, human Netrin1, recombinant AVEXIS …; assay: AVEXIS, prey NTN1 on bait NTN3
Excerpt: as §1

[18] = target: T4, human Netrin-4, AVEXIS protein; assay: AVEXIS, prey on bait NTN4; white = No binding
Excerpt: as §1

[19] = target: the molecule itself; assay: AVEXIS, prey on bait NTN3; white = No binding
Excerpt: as §1

[20] = target: T7, human Netrin-G1, AVEXIS protein (human, UniProt Q9Y2I2 29-510); assay: AVEXIS, prey on bait NTNG1; white = No binding
T7 construct: not shown: AVEXIS tag (bait or prey)
T7 sequence (looked up): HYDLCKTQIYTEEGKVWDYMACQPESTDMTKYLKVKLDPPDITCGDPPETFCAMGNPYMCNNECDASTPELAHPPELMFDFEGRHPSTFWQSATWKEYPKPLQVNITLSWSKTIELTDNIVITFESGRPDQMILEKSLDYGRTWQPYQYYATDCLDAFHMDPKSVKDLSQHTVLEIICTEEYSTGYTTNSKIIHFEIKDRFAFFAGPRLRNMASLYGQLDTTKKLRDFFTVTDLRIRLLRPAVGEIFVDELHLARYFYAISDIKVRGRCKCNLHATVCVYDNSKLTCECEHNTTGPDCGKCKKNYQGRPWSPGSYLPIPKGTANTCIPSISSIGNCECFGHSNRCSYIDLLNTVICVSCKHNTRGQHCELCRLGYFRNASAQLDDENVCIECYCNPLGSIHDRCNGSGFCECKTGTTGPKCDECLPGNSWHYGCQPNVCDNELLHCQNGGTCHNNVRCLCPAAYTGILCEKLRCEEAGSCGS
Excerpt: as §1

[21] = target: T8, Matn4 ECD, mono-biotinylated bait protein (positive control); assay: AVEXIS, prey on bait Matn4 (+), positive control for the prey; dark = Binding
T8 construct: extracellular domain; also called Matn4-bait
Excerpt: as §1

- binding result [2]: no binding
- A486nm [3]: 0.061
- A486nm [4]: 0.056
- binding result [6]: no binding
B1: zebrafish DraxinB, AVEXIS protein (ligand)
chain: TNTHHNSPMEVFSENIIIPPKPEASIHHHTHQRTDRGRKERMTASQLRERPRIAIFHTQNEGPDLEGLSPVRLEMEPADKRRVMTPRKKTFMGSDSLIQEKMNISPGAETPEKAMRRPTVRKVFGGHITRAPHEEESLASGKKRRVSFDQRLNKASFGSPTEPVLPAATVGTFILPITAAVDGNPNPSSEPQVRRYLGGDVAPTFNMALFDWTDYEDMRPGDKKQYSKKQGSEKQATQSPSTGLVRLTSENNVCKHHLDCLPGSCCNLRKHVCELHNRGFNNKCYDSCMCEEGLRCYAKSHRHYRITRKKGQCVDPEDLNHAVSRWMQM
- binding result [1]: no binding
- A486nm [5]: 0.059
- A486nm [7]: 0.057

- IC50 (read off the curve) [8]: ~20 nM
- IC50 (read off the curve) [9]: ~10 nM
- IC50 (read off the curve) [10]: ~70 nM
- IC50 (read off the curve) [11]: ~7 nM
- IC50 (read off the curve) [12]: ~10 nM
B2: purified His-tagged full-length zebrafish Draxin protein (Draxin-CD4d3+4-6XHis) (ligand)
chain: T2 chain
notes: Expressed in HEK293-6E cells and purified on HisTrap HP; also called purified full length DraxinA; purified DraxinA; not shown: rat Cd4d3+4 tag and 6xHis

- binding result [14]: no binding
- A486nm [15]: 0.068
- A486nm [16]: 0.06
- binding result [17]: no binding
- A486nm [18]: 0.064
- A486nm [20]: 0.069
- A486nm [21]: 0.224
B3: human Netrin-3, AVEXIS protein (ligand)
chain: not shown
notes: not shown: AVEXIS tag (bait or prey)
- binding result [13]: no binding
- A486nm [19]: 0.068
